Assay results taken from patent US20130108549A1 (ADLYFE, published 2013).
pyrene = pyrene fluorescent label

Biological target: T1, Aβ42 oligomers (Homo sapiens (Human), UniProt P05067 672-713)
T1 construct: also called oligomers of Aβ42 (including dimers, trimers, tetramers, hexamers and 12-mers); oligomeric forms of Aβ42
Test: pyrene excimer fluorescence, excitation 350 nm, scan 360-600 nm

T1 sequence (P05067 672-713 limits assumed): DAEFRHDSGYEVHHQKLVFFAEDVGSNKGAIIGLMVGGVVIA

B1: Peptide probe specific for Aβ (SEQ ID NO:36) labeled at each terminus with pyrene (peptide)
peptide: pyrene-KLVFFAEDVGSNKGAIIGLM-pyrene
notes: also called Aβ peptide probe; dipyrene labeled peptide probe
binding result: binds
